Measured values from the Human Domainome abundance scans (Beltran et al. 2025).
± gives the uncertainty stated by the source.

B1: Nanos homolog 2, residues 63 to 115; numbered along this chain, P60321 (parent)
chain: CNFCKHNGESRHVYSSHQLKTPDGVVVCPILRHYVCPVCGATGDQAHTLKYCP

Variants of: B1
Assay: abundance fitness (aPCA) (normalised: wild type 0, dead -1); higher = more abundant; growth selection in yeast, the domain comes from the species named
Conditions: Homo sapiens

Point of comparison: I30W, abundance fitness -0.346 ± 0.11. Against it:
- K20A — higher, -0.111 ± 0.057
- K20C — higher, -0.071 ± 0.089
- K20D — within error, -0.118 ± 0.18
- K20E — within error, -0.47 ± 0.2
- K20F — within error, -0.336 ± 0.14
- K20G — within error, -0.523 ± 0.12
- K20H — higher, -0.101 ± 0.077
- K20L — within error, -0.289 ± 0.069
- K20M — within error, -0.368 ± 0.12
- K20N — within error, -0.388 ± 0.16
- K20P — lower, -0.561 ± 0.097
- K20Q — within error, -0.47 ± 0.16
- K20S — within error, -0.168 ± 0.081
- K20T — higher, -0.118 ± 0.1
- K20V — within error, -0.204 ± 0.06
- K20W — lower, -0.569 ± 0.11
- K20Y — within error, -0.455 ± 0.14
- T21G — higher, -0.004 ± 0.11
- P22A — higher, -0.048 ± 0.09
- P22C — higher, 0.002 ± 0.15
- P22D — higher, -0.112 ± 0.1
- P22E — within error, -0.184 ± 0.1
- P22F — within error, -0.383 ± 0.14
- P22G — higher, -0.041 ± 0.084
- P22H — within error, -0.107 ± 0.19
- P22I — within error, -0.158 ± 0.13
- P22K — higher, 0.306 ± 0.13
- P22L — higher, -0.067 ± 0.096
- P22M — higher, -0.129 ± 0.076
- P22N — within error, -0.12 ± 0.22
- P22R — higher, -0.079 ± 0.075
- P22S — higher, 0.037 ± 0.069
- P22T — higher, -0.084 ± 0.092
- P22V — higher, -0.053 ± 0.069
- P22W — within error, -0.321 ± 0.17
- P22Y — higher, -0.121 ± 0.086
- D23C — within error, -0.189 ± 0.072
- D23E — higher, 0.076 ± 0.1
- D23F — within error, -0.371 ± 0.1
- D23G — higher, -0.132 ± 0.084
- D23H — within error, -0.307 ± 0.21
- D23I — within error, -0.418 ± 0.13
- D23L — within error, -0.252 ± 0.088
- D23M — within error, -0.234 ± 0.093
- D23N — higher, -0.044 ± 0.096
- D23P — within error, -0.378 ± 0.11
- D23Q — higher, -0.061 ± 0.072
- D23R — higher, -0.128 ± 0.071
- D23S — higher, -0.141 ± 0.084
- D23T — within error, -0.211 ± 0.13
- D23V — within error, -0.22 ± 0.069
- D23W — within error, -0.306 ± 0.11
- D23Y — within error, -0.119 ± 0.12
- G24C — within error, -0.496 ± 0.19
- G24D — higher, -0.108 ± 0.065
- G24E — higher, -0.115 ± 0.079
- G24F — lower, -1.02 ± 0.26
- G24H — within error, -0.381 ± 0.18
- G24I — lower, -0.983 ± 0.47
- G24K — within error, -0.353 ± 0.094
- G24L — lower, -0.527 ± 0.064
- G24M — within error, -0.461 ± 0.14
- G24N — higher, 0.113 ± 0.21
- G24P — within error, -0.478 ± 0.16
- G24Q — higher, -0.152 ± 0.064
- G24R — within error, -0.413 ± 0.092
- G24S — within error, -0.311 ± 0.092
- G24T — within error, -0.563 ± 0.13
- G24V — lower, -0.882 ± 0.081
- G24W — lower, -1.12 ± 0.27
- G24Y — lower, -0.895 ± 0.25
- V25C — higher, -0.001 ± 0.089
- V25D — within error, -0.148 ± 0.1
- V25E — higher, 0.015 ± 0.067
- V25F — higher, 0.166 ± 0.17
- V25H — within error, -0.489 ± 0.18
- V25I — higher, 0.03 ± 0.096
- V25K — higher, 0.085 ± 0.083
- V25L — higher, 0.074 ± 0.095
- V25M — higher, -0.051 ± 0.12
- V25N — higher, 0.08 ± 0.097
- V25Q — higher, -0.05 ± 0.075
- V25R — higher, 0.019 ± 0.086
- V25S — higher, -0.046 ± 0.092
- V25T — higher, 0.004 ± 0.071
- V25W — within error, -0.459 ± 0.13
- V25Y — higher, -0.092 ± 0.096
- V26A — within error, -0.369 ± 0.11
- V26C — higher, -0.032 ± 0.12
- V26D — within error, -0.509 ± 0.16
- V26E — within error, -0.574 ± 0.13
- V26F — within error, -0.284 ± 0.14
- V26G — within error, -0.441 ± 0.057
- V26I — higher, 0.033 ± 0.084
- V26K — higher, -0.031 ± 0.15
- V26L — higher, -0.036 ± 0.083
- V26M — within error, -0.292 ± 0.2
- V26N — within error, -0.456 ± 0.17
- V26P — within error, -0.359 ± 0.17
- V26Q — within error, -0.305 ± 0.081
- V26R — within error, -0.523 ± 0.087
- V26S — within error, -0.322 ± 0.092
- V26T — higher, -0.111 ± 0.077
- V26W — within error, -0.46 ± 0.071
- V26Y — within error, -0.427 ± 0.22
- V27A — higher, -0.074 ± 0.087
- V27C — higher, -0.014 ± 0.091
- V27D — higher, -0.09 ± 0.13
- V27E — within error, -0.148 ± 0.12
- V27F — higher, -0.049 ± 0.12
- V27G — higher, -0.085 ± 0.082
- V27H — higher, 0.096 ± 0.14
- V27I — higher, 0.053 ± 0.13
- V27K — within error, -0.132 ± 0.15
- V27L — higher, -0.075 ± 0.11
- V27M — within error, -0.069 ± 0.17
- V27P — within error, -0.434 ± 0.09
- V27Q — within error, -0.349 ± 0.28
- V27R — higher, 0.037 ± 0.094
- V27T — higher, 0.02 ± 0.072
- V27W — within error, -0.144 ± 0.14
- V27Y — within error, -0.128 ± 0.13
- C28A — lower, -0.714 ± 0.12
- C28D — within error, -0.643 ± 0.21
- C28E — lower, -0.733 ± 0.13
- C28F — lower, -0.91 ± 0.18
- C28G — lower, -0.535 ± 0.058
- C28L — lower, -0.962 ± 0.078
- C28M — within error, -0.524 ± 0.11
- C28P — lower, -0.664 ± 0.18
- C28Q — within error, -0.428 ± 0.2
- C28R — lower, -0.752 ± 0.09
- C28S — within error, -0.501 ± 0.085
- C28T — within error, -0.586 ± 0.16
- C28V — lower, -0.852 ± 0.17
- C28W — lower, -1.03 ± 0.26
- C28Y — lower, -0.815 ± 0.28
- P29A — lower, -0.786 ± 0.25
- P29C — lower, -1.07 ± 0.12
- P29D — within error, -0.543 ± 0.15
- P29E — within error, -0.195 ± 0.14
- P29G — lower, -0.588 ± 0.089
- P29K — within error, -0.364 ± 0.074
- P29L — lower, -0.978 ± 0.15
- P29M — lower, -1.05 ± 0.16
- P29N — within error, -0.779 ± 0.4
- P29Q — within error, -0.38 ± 0.17
- P29R — within error, -0.503 ± 0.06
- P29S — lower, -0.65 ± 0.12
- P29W — lower, -1.07 ± 0.35
- P29Y — within error, -0.721 ± 0.29
- I30A — higher, 0.084 ± 0.1
- I30C — within error, -0.304 ± 0.15
- I30D — within error, -0.345 ± 0.28
- I30E — within error, -0.108 ± 0.13
- I30F — within error, -0.524 ± 0.2
- I30G — higher, -0.081 ± 0.065
- I30H — higher, 0.041 ± 0.2
- I30K — higher, 0.127 ± 0.089
- I30L — higher, -0.033 ± 0.084
- I30M — higher, 0.015 ± 0.11
- I30N — higher, 0.039 ± 0.18
- I30P — within error, -0.249 ± 0.091
- I30Q — higher, -0.05 ± 0.12
- I30S — higher, 0.082 ± 0.06
- I30T — higher, 0.111 ± 0.098
